{"source": "paper PMC5798227", "molecular_target": "DS-SOSIP.664 trimer (BG505) (HIV-1 BG505 (clade A))", "experiment": "SPR"}
{"substance": "2-domain soluble CD4 (receptor)", "values": [{"measurement": "Kd", "value": 8, "unit": "nM"}]}
